Test results reported in the nanobody polyreactivity screen of Harvey et al. (2022).

Assay: yeast display, Sf9 membrane polyspecificity reagent, FACS + sequencing; frameworks hold sequencing errors
Method in brief: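 Using colony PCR, genes from sorted yeast display clones were amplified, then sequenced on MiSeq at 2 × 250 and filtered by CDR length. The clones had been stained with 10% biotinylated, detergent-solubilized Sf9 membrane reagent for 1 hour at 4 °C and sorted by FACS into low and high (top ~1%) gates on anti-HA and streptavidin fluorescence. Polyreactivity labels come from the gate of origin.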

Sequence | polyreactivity (PSR sort gate)
QVQLVESGGGLVQAGGSLRLSCAASGSIFWEYAMGWYRQAPGKDREFVATISARGGRTYYADSVKGRFTSSRDNAKNTVYLQMNSLKPDATAVYYCANVGVFHLRDNYRFDYWGQGTQVTVSS | low polyreactivity
QVQLVESGGGLVQAGGSLRLSCAASGSIFWFKAMGWYRQAPGKERELVATIRYSGGSTYYADSVKGRFTISRDNEKNTVYLQRNSMKPEDTAVYYCAADAVGDGHNDYWGLGTQVTVSS | high polyreactivity
QVQLVESGGGLVQAGGSLRLSCAASGSIFWIYAMVWSRQAPGKERELVAVISDRGARTYYADSVKGRFTLSRDNAKNTVYLQMNSLKPEDTAVYYCNADTRQARLQKMDSWGQGTQVTVSS | high polyreactivity
QVQLVESGGGLVQAGGSLRLSCAASGSIFWNYTMGWYRPAPGKERELVAAITWSGSSTYYADSVKGRFTISRDNAKNTVYLQMNSLKPEDTAVYYCAKDGSGTYEFDYWGQGTQVTVSS | low polyreactivity
QVQLVESGGGLVQAGGSLRLSCAASGSIFWRNAMGWYRQAPGKERELVAAITKTGASTYYADSVKGRFTISRDNAKNTVYLQMNSLKPEDTAVYYCAKDTRGRYAGSYRYDYCGQGTQVTVSS | low polyreactivity
QVQLVESGGGLVQAGGSLRLSCAASGSIFWRNAMGWYRQAPGKERELVAAITSGGSTYYADSVKGRFTISRDNAKNTVYLQMNSLNPEDTAVYYCAAGYSYRYGYWGQGTQVTVSS | low polyreactivity
QVQLVESGGGLVQAGGSLRLSCAASGSIFWSNAMGWYRQSPGKEREFVASISSSGSTNYADSVKGRFTISRDNAKNTVYLQMNSLKPEDTAVYYCNADGLYSYWYFWSSAYDYWGQGTQVTVSS | low polyreactivity
QVQLVESGGGLVQAGGSLRLSCAASGSIFWSYAMGWYRQAPGKEREFVAAITVSGGSTYYADSVKGRFTISRDNAKNTVYLQMNSLKPEDTAVFYCAARQLTAGGTDLDYWGQGTKVTVSS | low polyreactivity
QVQLVESGGGLVQAGGSLRLSCAASGSIFWSYAMGWYRQAPGKERELVAAITWSGGNTYADSVKGRFTISRDNAKNTVYLQMNSLTPEDTAVYYCAAYPAHGTKWYVYPSHDDYWGQGTQVNVSS | low polyreactivity
QVQLVESGGGLVQAGGSLRLSCAASGSIFWSYAMGWYRQAPGKERELVAAITYSGTSTYYADSVKGRFTISRDNAKNTVYLQMNSLKPEDTAVSYCAASPYSRSRYDYWGQGTQVTVSS | low polyreactivity
QVQLVESGGGLVQAGGSLRLSCAASGSIFWSYAMGWYRQAPGKERELVAVINWSGGSTYYADSVKGRFTISRDNAKNTVYLQMTSLKPEDTAVYYCNKDLGPTKRPFTFDYWGQGTQVTVSS | low polyreactivity
QVQLVESGGGLVQAGGSLRLSCAASGSIFWTNVMGWYRQAPGKERELVAAISYSDGSTYYADSVKGRFTISRDNAKNTVYLQMNSLKPEDTAVYYCAADQYYYWGGYDYWGQGTQVTVSS | low polyreactivity
QVQLVESGGGLVQAGGSLRLSCAASGSIFWYNAKGWYRQAPGKERELVAAINWGGGSTYYADSVKGRFTISRDNAKNTVYLEMNSLTPEDTAVYYCNADQQVDHATVSQRDGYDYWGQGTQVTVSS | low polyreactivity
QVQLVESGGGLVQAGGSLRLSCAASGSIFWYYAMGWYRQAPGKERELVAAIRRGGSTTYADSVKGRFTISRDNAKNTVYLQMNSLKPEDTAVYYCAAEPYYWYRGDYWGQGTQVTVSS | high polyreactivity
QVQLVESGGGLVQAGGSLRLSCAASGSIFWYYAMGWYRQAPGKERELVAAISSGGSTYYADSVKGRFTISRDNAKNTVYLQMNSLKPEDTAVYYCAAGAFGQILNYWGQGTQVTVSS | high polyreactivity
QVQLVESGGGLVQAGGSLRLSCAASGSIFWYYAMGWYRQAPGKERELVADITIRGGRTYYADSVKGRFTISRDNAKNTVYLQMNSLKPEDTAVYYCAADWEYWGFGLYDYWGQGTQVTVSS | low polyreactivity
QVQLVESGGGLVQAGGSLRLSCAASGSIFWYYAMGWYRQAPGKERELVASISSSGGSTYYADSVKGRFTISRDNAKNTVYLQMNSLKPEDTAVYYCAVRSPYRLSRWRVGYWGQGTQVTVSS | high polyreactivity
QVQLVESGGGLVQAGGSLRLSCAASGSIFWYYVMGWYRQAPGKERELVAAITFSGAGTYYADSVKGRFTISRDNAKNTVYLQMNSLKPEDTAVYYCAARWLGHFYPFFLQGLSGFDYWGQGTQVTVSS | low polyreactivity
QVQLVESGGGLVQAGGSLRLSCAASGSIFYANAMGWYRQAPAKERELVAAIRSGGSTNYADSVKGRFTISRDNAKKTVYLQMNSLKPEDTAVYYCAAVWRYWSGQKVGYWGQGTQVTVSS | high polyreactivity
QVQLVESGGGLVQAGGSLRLSCAASGSIFYANAMGWYRQAPGKERELVAAISWSGGRTYYADSVKGRFTISRDNAKNTVYLQMNSLKPEDTAVYYCNVLPLYLEYDYWGQGTQVTVSS | high polyreactivity
QVQLVESGGGLVQAGGSLRLSCAASGSIFYAYAMGWYRQAPGKEREFVAVISYSGGSTYYADSVKGRFTISRDNAKNTVYLQMNSLKPEDTAVYYCAARYRRPYSYYYWGQGTQVTVSS | high polyreactivity

Sequence | polyreactivity (PSR sort gate)
QVQLVESGGGLVQAGGSLRLSCAASGSIFYAYAMGWYRQAPGKERELVAVISRGGITNYADSVKGRFTISRDNAKNTVYLQMNSMKPEDTAVYYCAAATSAWGYLRRYGYWGQGTQVTVSS | low polyreactivity
QVQLVESGGGLVQAGGSLRLSCAASGSIFYAYAMGWYRQAPGKESELVAVISRGGITNYADSVKGRFTISRDNAKNTVYLQMNSLKPEDTAVYYCAAATSAWGYLRRYGYWGQGTQVTVSS | low polyreactivity
QVQLVESGGGLVQAGGSLRLSCAASGSIFYDKAMGWYRQAPGKERELVAVISNSGRTYYADSVKGRFTISRDNAKNTVYLQMNSLKPEDTAVYYCWGQVTQVTVSS | low polyreactivity
QVQLVESGGGLVQAGGSLRLSCAASGSIFYDYMGWYRQAPGKERELVAVISYSGSSTYYADSVKGRFTISRDNAKNTVYLQMNSLKPEDTAVYYCAARNVNGWDYDYWGQGTQVTVSS | low polyreactivity
QVQLVESGGGLVQAGGSLRLSCAASGSIFYDYVMGWYRQAPGKERELVAAISVSGGRTYYADSVKGRFTISRDNAKNTVYLQMNSLKPEDTAVDYCAAKYPAGGRNYDYWGQGTQVTVSS | high polyreactivity
QVQLVESGGGLVQAGGSLRLSCAASGSIFYENTMGWYRQAPGKEREFVAAISRSGGSTYYADSEKGRFTISRDNAKNTVYLQMNSLKPEDTAVYYCAAKSRRYHHEYYYWGQGTQVTVSS | high polyreactivity
QVQLVESGGGLVQAGGSLRLSCAASGSIFYFNAMGWYRPAPGKERELVAAINISGSSTSYADSVKGRFTISRDNAKNTVYLQMNSLKPEDTAVYYCAAEDEPRILIVRVWDYYWGQGTQVTVSS | low polyreactivity
QVQLVESGGGLVQAGGSLRLSCAASGSIFYFNAMGWYRQAPGKERELVAAISTSGGSTYADSVKGRFTISRDNAKNTVYLQMNSLKPEDTAVYYCAADFLTSRSRTFDYWGQGTQVTVSS | low polyreactivity
QVQLVESGGGLVQAGGSLRLSCAASGSIFYFNAMGWYRQAPGKERELVAAITASGGRTYYADSVKGRFTISRDNAKNTVYLQMNSLKPEDTAVYYCNAYRPWSWWGEMDYWGQGTQVTVSS | high polyreactivity
QVQLVESGGGLVQAGGSLRLSCAASGSIFYFNAMGWYRQAPGKERELVADISWSGGESTYYADSVKGRFTISRDNAKNTVYLQMNSLKPEYTAVYYCAADYWSPYVYVYWGQGTQVTLSS | low polyreactivity
QVQLVESGGGLVQAGGSLRLSCAASGSIFYFNAMGWYRQAPGKERELVADITSGGSTYYADSVKGRFTISRDNAKNTVYLQMNSLKPEDTAVYYCNAALPVTRSERYGSDYWGQGTQVTVSS | low polyreactivity
QVQLVESGGGLVQAGGSLRLSCAASGSIFYGFDMGWYRQAPGKERELVATISWSSGSSTYYADTVKGRFTISRDNAKNTVYLQMNSLKPEETAVYYCAVDFAIGYRYQGRVDYWGQGTQVTVSS | low polyreactivity
QVQLVESGGGLVQAGGSLRLSCAASGSIFYGNAMGWYRQAPGNERESVAGITGSGSRTYYADSVKGRFTISRDNAKITVYLQMNSLKAEDTAVYYCARLTRTSRGLYDYWGQGTQVTVSS | high polyreactivity
QVQLVESGGGLVQAGGSLRLSCAASGSIFYGNTMGWYRQAPGKEREFVAAINKSDDSTYYADSVKGRFTISRDNAKNTVYLQMNSLKPEDTAVYYCAADYLGRFDYNYWGQGTQVTVSS | low polyreactivity
QVQLVESGGGLVQAGGSLRLSCAASGSIFYGNTMGWYRQAPGKERELVAGITRGGGSTYYADSVKGRFTISRDNAKNTVYLQMNSLKPEDTAVYYCAATFPYHDGDYWGQGTQVTVSS | low polyreactivity
QVQLVESGGGLVQAGGSLRLSCAASGSIFYGNVMGWYRQAPGKERELVAAISSSGGSTYYADSVKGRFTISRDTAKNTVYLQMNSLKPEDTAVYYCAAYWWSRVVRGSRYDYWGQGTQVTVSS | low polyreactivity
QVQLVESGGGLVQAGGSLRLSCAASGSIFYGYAMGWSRQAPGKERELVAVITDGGGSTYYADSVKGRFTISRDNAKNTVYLQMNSLKPEDTAVYYCAADSWGPYYYSSYSYDYWGQGTQVTVSS | low polyreactivity
QVQLVESGGGLVQAGGSLRLSCAASGSIFYGYAMGWYIQAPGKERELVAAISGNGGSTYFADSVKGRFTISRDNAKNTVYLQMNSLKTEDTAVYYCAVEVYHYGYEYDYWGQGTQVTVSS | high polyreactivity
QVQLVESGGGLVQAGGSLRLSCAASGSIFYGYAMGWYRPAPGKERELVAAISSGGRTYYADSVKGRFTISRDNAKNTVYLQMNSLKPEDTAVYHCAASYWKPHRESGYDYWGQGTQVTVSS | high polyreactivity
QVQLVESGGGLVQAGGSLRLSCAASGSIFYGYAMGWYRQAPGKERELVAAISWSGTSTYYADSVKGRFTISRDNAKNTVYLQMNSLKPEDTAVYYCAADQFQGNSGFEYWGQGTQVTVSS | low polyreactivity
